According to US8124583B2, “Composition and method for self-assembly and mineralization of peptide-amphiphiles” (Northwestern University, priority 2002, dated 2012):
Square brackets hold non-standard residues; d marks the D form. * marks the point of attachment. Palmitoyl = CCCCCCCCCCCCCCCC(=O)*; pS = N[C@@H](COP(=O)(O)O)C(=O)O; C16 = 16 carbon alkyl tail

Columns and labels:
Type in all cases: physicochemical
[1] = Gelation of charged peptide amphiphile solutions with ions or with each other; settings: positive PA in Ca+2 (reaction 4); negative PA in PO4−3 (reaction 5)
Source text: In another example of this invention, the composition and method consists of using highly charged peptide amphiphile species (16 carbon alkyl tail with a sequence like CCCCGGGSS(P)DS(P)D (SEQ ID NO: 14) with a −7 charge, for example) dissolved in a solution of negative ions (phosphate ions with a −3 charge), call this solution X. A second solution with a positively-charged peptide amphiphile species (such as 16 carbon alkyl tail with a sequence like ACAAGGGKRGDS (SEQ ID NO: 21)—an amine terminated PA at +1 charge) in a solution with positively-charged ions, such as Ca^2+; call this solution Y. In both solutions the peptide heads are charged and the structural element of the peptide can be varied, to give different charged peptide-amphiphile species, depending on the application.
The positive and negative peptide amphiphiles alone (no added salt ions) will gel each other, reaction 1, when mixed in the right ionic ratios (1:7, (−):(+) in this instance), forming mixed peptide amphiphile nanofibers, theoretically composed of 7 positive peptide amphiphiles for every 1 of the negative peptide amphiphiles. The positive peptide amphiphile solution Y may be gelled, reaction 2, with the negative ions (for example a solution containing phosphate ion PO4^−3). […] Mixing the positive and negative ions (calcium cation with phosphate anion) will make calcium phosphate mineral (reaction 6). […]

Solubility in water = settings: for concentration at which the molecules dissolve: pH 7.5-adjusted water
Method: (§1) The two molecules dissolve in pH 7.5-adjusted water at a concentration of about 10 mg/mL. Molecule 1 has a charge of (−1) and molecule 2 has a charge of (+2) under these conditions.
Cleavage and deprotection of the molecules was accomplished with a mixture of trifluoroacetic acid (TFA) and triisopropylsilane (TIS) in a ratio of 95:5 for three hours at room temperature. The cleavage mixture and two subsequent TFA washings were filtered into a round bottom flask. The solution was roto-evaporated to a thick viscous solution. This solution was triturated with cold diethylether. The white precipitate was collected by filtration, washed with copious cold ether and dried under vacuum. The molecules were then dissolved in water at a concentration of 10 mg/mL, adjusting the pH to improve solubility. The solution was initially acidic in both cases. In the case of molecule 1, the pH was raised to about pH 8 with 2M and 100 mM KOH, then back-titrated to pH 7.

[2] = Self assembly/gelation with monovalent salts (KCl, NaCl); settings: mixing with 200 mM KCl or NaCl solutions
Method: as §1
In all cases self assembled gels comprised of the nanofibers were formed similar to those described elsewhere (Hartgerink et al., 2001; Hartgerink et al., 2002). In contrast no self assembly or gel formation was observed when other negatively or positively charged peptide-amphiphiles were exposed to the NaCl or the KCl at concentrations up to 6 M. The fact that molecules 1 and 2 assemble in the presence of the monovalent salts sets them apart from the other molecules studied. […] The reason for this difference may be in the structure of these molecules. Both these molecules contain IKVAV (SEQ ID NO: 1) sequence at the c-terminus of the peptide segment. […]
Transmission Electron Micrographs of samples of the supramolecular compositions from the multi-dimensional peptide-amphiphiles, Molecule 1 and Molecule 2, were prepared as follows. A small sample of the supramolecular composition gel, prepared in bulk as described above, was smeared onto a holey carbon coated TEM grid (Quantifoil). […]

[3] = Self assembly with CaCl2 and hydroxyapatite mineralization of nanofiber gel (TEM, electron diffraction)
Method: A liquid composition for the self assembly of (1) and mineralization of hydroxyapatite was prepared by dissolving […] NaH2PO4 (Aldrich) into 200 microliters of (1) at a concentration of 10 mg/ml in water. The pH of the solution was adjusted to 7.7.
The liquid composition containing (1) and NaH2PO4 was mixed with 40 micromoles of CaCl2 (Aldrich).
Samples of the gel after 2 hours, 1 day, and 5 days were mounted on carbon-coated TEM grids. TEM studies of the 1 and 5 day samples show a multi-crystalline material composed of plate like crystals˜5 nm thick and 50 to 100 nm long. The plate like crystals were similar to those observed in the mineralization experiments on the pre-assembled template.

Row | Substance | gelation in ions of the same charge sign [1] | concentration at which the molecules dissolve (Solubility in water) | gel formation with monovalent salt [2] | other results
1 | ACAAGGGKRGDS [positively-charged peptide amphiphile, 16 carbon alkyl tail, amine terminated PA] | does not gel |  |  | 
2 | C15H31C(O)-CCCCGGGEIKVAV-NH2 (Palmitoyl-CCCCGGGEIKVAV-NH2; cysteine pairing not given here) [Molecule 2] |  | about 10 mg/mL | self-supporting gel forms | pH dependence of solubility (Solubility in water; water, 10 mg/mL, pH adjusted with KOH): most soluble at low pH
3 | C15H31C(O)-CCCCGGGS(P)RGD-COOH (Palmitoyl-CCCCGGG[pS]RGD-OH; cysteine pairing not given here) [PA 18] |  |  |  | self assembled gel formation ([3]; addition of CaCl2 to 10 mg/ml peptide-amphiphile preloaded with NaH2PO4, pH 7.7): formed immediately; time until gel turned a white color (mineralization started) ([3]; after CaCl2 addition): about 2 hours
4 | C15H31C(O)-CCCCGGGEIKVAV-COOH (Palmitoyl-CCCCGGGEIKVAV-OH; cysteine pairing not given here) [PA 22] |  | about 10 mg/mL | self-supporting gel forms | 
5 | CCCCGGGSS(P)DS(P)D (C16-CCCCGGGS[pS]D[pS]D-OH; cysteine pairing not given here; also: C16 alkyl tail) | does not gel |  |  | 
